According to publication doi:10.64898/2025.12.17.694835:

Columns and labels:
[1] = target: HALOGluA3 (GluA3 subunit with HALO domain inserted between signal peptide and N-terminal domain) (rat) (UniProt P19492); assay: FRET or BRET
[2] = target: HALOGluA2(R) (GluA2(R) subunit with HALO domain inserted between signal peptide and N-terminal domain) (rat) (UniProt P19491); assay: FRET or BRET
HALOGluA2(R) (GluA2(R) subunit with HALO domain inserted between signal peptide and N-terminal domain) (rat), sequence (P19491 22-883): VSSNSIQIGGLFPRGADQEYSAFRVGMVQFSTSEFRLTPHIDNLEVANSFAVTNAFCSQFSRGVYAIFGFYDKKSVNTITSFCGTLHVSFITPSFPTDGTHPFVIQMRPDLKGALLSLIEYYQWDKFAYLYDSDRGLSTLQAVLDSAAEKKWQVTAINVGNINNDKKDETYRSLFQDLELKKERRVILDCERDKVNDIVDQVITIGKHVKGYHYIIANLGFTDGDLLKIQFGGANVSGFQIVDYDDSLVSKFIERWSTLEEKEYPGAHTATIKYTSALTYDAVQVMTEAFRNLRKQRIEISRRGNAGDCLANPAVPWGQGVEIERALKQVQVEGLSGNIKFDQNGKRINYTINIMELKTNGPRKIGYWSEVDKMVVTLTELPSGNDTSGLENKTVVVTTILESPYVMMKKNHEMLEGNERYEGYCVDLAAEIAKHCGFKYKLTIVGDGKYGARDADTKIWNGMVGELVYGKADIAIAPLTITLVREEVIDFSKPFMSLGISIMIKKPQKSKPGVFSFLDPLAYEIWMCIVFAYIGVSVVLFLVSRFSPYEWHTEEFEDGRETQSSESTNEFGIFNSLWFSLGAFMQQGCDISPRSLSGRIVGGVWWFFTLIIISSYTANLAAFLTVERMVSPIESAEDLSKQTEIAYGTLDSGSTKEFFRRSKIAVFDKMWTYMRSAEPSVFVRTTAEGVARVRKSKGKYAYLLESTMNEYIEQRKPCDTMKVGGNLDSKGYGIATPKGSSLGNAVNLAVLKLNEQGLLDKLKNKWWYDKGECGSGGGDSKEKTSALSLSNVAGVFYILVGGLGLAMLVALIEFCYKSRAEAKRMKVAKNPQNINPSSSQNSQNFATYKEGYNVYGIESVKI

HALOGluA3 (GluA3 subunit with HALO domain inserted between signal peptide and N-terminal domain) (rat), sequence (P19492 23-888): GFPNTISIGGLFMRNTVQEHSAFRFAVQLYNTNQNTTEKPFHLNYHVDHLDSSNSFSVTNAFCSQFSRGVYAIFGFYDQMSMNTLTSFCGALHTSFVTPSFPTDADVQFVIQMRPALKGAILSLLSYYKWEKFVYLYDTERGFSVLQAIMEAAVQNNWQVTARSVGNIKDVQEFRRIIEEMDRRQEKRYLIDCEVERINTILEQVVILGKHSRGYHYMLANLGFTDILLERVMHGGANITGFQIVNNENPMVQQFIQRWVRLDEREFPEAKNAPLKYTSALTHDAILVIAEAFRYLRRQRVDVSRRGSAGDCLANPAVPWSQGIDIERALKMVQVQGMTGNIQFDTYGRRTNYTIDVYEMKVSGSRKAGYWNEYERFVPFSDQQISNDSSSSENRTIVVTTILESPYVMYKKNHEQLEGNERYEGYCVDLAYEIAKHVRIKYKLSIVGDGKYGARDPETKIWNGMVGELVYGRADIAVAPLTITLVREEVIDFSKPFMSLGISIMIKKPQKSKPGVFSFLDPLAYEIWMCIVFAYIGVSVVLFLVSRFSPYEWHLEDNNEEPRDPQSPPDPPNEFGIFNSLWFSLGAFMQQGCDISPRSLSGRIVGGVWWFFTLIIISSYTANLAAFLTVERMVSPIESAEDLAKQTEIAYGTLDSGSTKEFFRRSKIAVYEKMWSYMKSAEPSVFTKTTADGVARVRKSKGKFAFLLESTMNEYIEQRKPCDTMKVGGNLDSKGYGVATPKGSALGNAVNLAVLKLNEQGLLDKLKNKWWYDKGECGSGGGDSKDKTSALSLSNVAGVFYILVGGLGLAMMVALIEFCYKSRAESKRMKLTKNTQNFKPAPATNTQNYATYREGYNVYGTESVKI
CFPGluA2(R) (GluA2(R) subunit with CFP inserted between signal peptide and N-terminal domain), sequence (P19491 22-883): as the sequence (P19491 22-883) above
CFPGluA1 (GluA1 subunit with CFP inserted between signal peptide and N-terminal domain), sequence (P19490 19-907): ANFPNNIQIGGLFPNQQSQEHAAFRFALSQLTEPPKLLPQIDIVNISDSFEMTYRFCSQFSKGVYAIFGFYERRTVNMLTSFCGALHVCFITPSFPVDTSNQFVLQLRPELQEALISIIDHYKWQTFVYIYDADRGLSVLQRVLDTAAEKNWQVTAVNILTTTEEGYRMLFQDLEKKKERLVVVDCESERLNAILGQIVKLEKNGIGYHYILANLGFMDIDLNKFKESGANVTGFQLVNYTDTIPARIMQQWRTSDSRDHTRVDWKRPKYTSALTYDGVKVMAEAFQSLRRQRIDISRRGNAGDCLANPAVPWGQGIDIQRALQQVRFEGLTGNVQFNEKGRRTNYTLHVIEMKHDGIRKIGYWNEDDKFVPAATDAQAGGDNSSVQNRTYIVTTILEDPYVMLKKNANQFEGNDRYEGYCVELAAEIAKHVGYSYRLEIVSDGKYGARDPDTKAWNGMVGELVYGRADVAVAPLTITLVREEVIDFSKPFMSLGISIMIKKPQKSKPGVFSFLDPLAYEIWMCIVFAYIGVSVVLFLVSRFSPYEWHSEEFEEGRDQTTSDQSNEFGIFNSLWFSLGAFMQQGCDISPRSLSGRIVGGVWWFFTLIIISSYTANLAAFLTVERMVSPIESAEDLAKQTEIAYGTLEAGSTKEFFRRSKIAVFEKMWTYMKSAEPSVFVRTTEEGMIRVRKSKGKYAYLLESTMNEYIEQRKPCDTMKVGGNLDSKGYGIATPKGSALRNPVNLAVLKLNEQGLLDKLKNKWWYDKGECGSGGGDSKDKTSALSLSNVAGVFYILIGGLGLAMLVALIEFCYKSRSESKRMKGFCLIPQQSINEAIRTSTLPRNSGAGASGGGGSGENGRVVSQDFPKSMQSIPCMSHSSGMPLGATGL

| CFP (donor) lifetime mean in the presence of the acceptor AF488 [1] | E FRET [1] [%] | CFP (donor) lifetime mean in the presence of the acceptor AF488 [2] | E FRET [2] [%] | Substance |
| --- | --- | --- | --- | --- |
| 2.51 | 27 |  |  | CFPGluA2(R) (GluA2(R) subunit with CFP inserted between signal peptide and N-terminal domain) (from UniProt P19491 22-883) (receptor) |
|  |  | 2.03 | 38.5 | CFPGluA1 (GluA1 subunit with CFP inserted between signal peptide and N-terminal domain) (from UniProt P19490 19-907) (receptor) |
